ChEMBL document CHEMBL1135749, “Stereoselective synthesis and antiviral activity of D-2',3'-didehydro-2',3'-dideoxy-2'-fluoro-4'-thionucleosides” (J Med Chem, 2002)

Molecular target: Adenosine deaminase (Bos taurus) (UniProt P56658)
Assay: Binding efficiency towards mammalian Adenosine deaminase from calf intestinal mucosa

B1: Adenosine deaminase (Bos taurus), P56658 (protein)
chain: MAQTPAFNKPKVELHVHLDGAIKPETILYYGRKRGIALPADTPEELQNIIGMDKPLSLPEFLAKFDYYMPAIAGCREAVKRIAYEFVEMKAKDGVVYVEVRYSPHLLANSKVEPIPWNQAEGDLTPDEVVSLVNQGLQEGERDFGVKVRSILCCMRHQPSWSSEVVELCKKYREQTVVAIDLAGDETIEGSSLFPGHVKAYAEAVKSGVHRTVHAGEVGSANVVKEAVDTLKTERLGHGYHTLEDATLYNRLRQENMHFEVCPWSSYLTGAWKPDTEHPVVRFKNDQVNYSLNTDDPLIFKSTLDTDYQMTKNEMGFTEEEFKRLNINAAKSSFLPEDEKKELLDLLYKAYGMPSPASAEQCL
Km: 18.3 µM
